Key:
[1] = molecular target: RRV 26–95 gH-V5/gL-Flag complex (rhesus monkey rhadinovirus (RRV) isolate 26–95)
[2] = molecular target: recombinant RRV 26–95 gH-FcStrep/gL (rhesus monkey rhadinovirus (RRV) isolate 26–95); assay: ELISA; RRV 26–95 gH-FcStrep/gL coated at 1μg/ml in PBS; Plxdc1 or Plxdc2 ectodomain 2h at room temperature in 10% FBS in PBS; detected by the C-terminal 6XHis Tag; fit: one site specific binding with Hill slope (Prism6)

Row | Substance | infection of SLK cells by RRV-YFP wt after preincubation with 250nM hPlxdc2-FcStrep, relative to preincubation with FcStrep (Fig 2D) (% of control infection) [1] | infection of rhesus monkey fibroblasts (RF) by RRV-YFP wt after preincubation with 250nM hPlxdc2-FcStrep, relative to preincubation with FcStrep (Fig 2D) (% of control infection) [1] | EC50 [2]
1 | soluble human Plxdc2, ectodomain (amino acids 31–453) fused to IgG1 Fc with a C-terminal tandem Strep-Tag (from UniProt Q6UX71-1 31-453) (Fc fusion) | 63.5 | 73.9 | 
2 | human Plxdc1 ectodomain (aa 1–425) with a 6XHis Tag (from UniProt Q8IUK5-1 19-425) (domain or fragment) |  |  | 22.2 nM
3 | human Plxdc2 ectodomain (aa 1–453) with a 6XHis Tag (from UniProt Q6UX71-1 31-453) (domain or fragment) |  |  | 5.2 nM

From paper PMC7959344
